Test results: patent US20230002480A1

How the values were obtained:
Experiment in all cases: cell-based or functional assay
[1] = biological target: HIV-1 Env of pseudovirus 231965.c01 (HIV-1)
[2] = biological target: HIV-1 Env of pseudovirus 3016.v5.c45 (HIV-1)
[3] = biological target: HIV-1 Env of pseudovirus 6240_08_TA5_4622 (HIV-1)
[4] = biological target: HIV-1 Env of pseudovirus 6535.3 (HIV-1)
[5] = biological target: HIV-1 Env of pseudovirus 6545.v4.c1 (HIV-1)
[6] = biological target: HIV-1 Env of pseudovirus 7030102001E5(Rev-) (HIV-1)
[7] = biological target: HIV-1 Env of pseudovirus 89-F1_2_25 (HIV-1)
[8] = biological target: HIV-1 Env of pseudovirus A07412M1.vrc12 (HIV-1)
[9] = biological target: HIV-1 Env of pseudovirus AC10.0.29 (HIV-1)
[10] = biological target: HIV-1 Env of pseudovirus BJOX028000.10.3 (HIV-1)
[11] = biological target: HIV-1 Env of pseudovirus CAAN5342.A2 (HIV-1)
[12] = biological target: HIV-1 Env of pseudovirus CAP210.2.00.E8 (HIV-1)
[13] = biological target: HIV-1 Env of pseudovirus CNE17 (HIV-1)
[14] = biological target: HIV-1 Env of pseudovirus CNE21 (HIV-1)
[15] = biological target: HIV-1 Env of pseudovirus CNE52 (HIV-1)
[16] = biological target: HIV-1 Env of pseudovirus Ce0393_C3 (HIV-1)
[17] = biological target: HIV-1 Env of pseudovirus Ce1172_H1 (HIV-1)
[18] = biological target: HIV-1 Env of pseudovirus Ce1176_A3 (HIV-1)
[19] = biological target: HIV-1 Env of pseudovirus Ce2060_G9 (HIV-1)
[20] = biological target: HIV-1 Env of pseudovirus Ce703010054_2A2 (HIV-1)
[21] = biological target: HIV-1 Env of pseudovirus HIV-001428-2.42 (HIV-1)
[22] = biological target: HIV-1 Env of pseudovirus HIV-16845-2.22 (HIV-1)
[23] = biological target: HIV-1 Env of pseudovirus MS208.A1 (HIV-1)
[24] = biological target: HIV-1 Env of pseudovirus P1981_C5_3 (HIV-1)
[25] = biological target: HIV-1 Env of pseudovirus Q259.d2.17 (HIV-1)
[26] = biological target: HIV-1 Env of pseudovirus Q461.e2 (HIV-1)
[27] = biological target: HIV-1 Env of pseudovirus R2184.c04 (HIV-1)
[28] = biological target: HIV-1 Env of pseudovirus REJO4541.67 (HIV-1)
[29] = biological target: HIV-1 Env of pseudovirus RHPA4259.7 (HIV-1)
[30] = biological target: HIV-1 Env of pseudovirus T255-34 (HIV-1)
[31] = biological target: HIV-1 Env of pseudovirus TRO.11 (HIV-1)
[32] = biological target: HIV-1 Env of pseudovirus WEAU_d15_410_787 (HIV-1)
[33] = biological target: HIV-1 Env of pseudovirus WITO4160.33 (HIV-1)
[34] = biological target: HIV-1 Env of pseudovirus X1254_c3 (HIV-1)
[35] = biological target: HIV-1 Env of pseudovirus X2131_C1_B5 (HIV-1)
[36] = biological target: HIV-1 Env of pseudovirus ZM247v1(Rev-) (HIV-1)
[37] = biological target: HIV-1 Env of pseudovirus ZM249M.PL1 (HIV-1)

## 3BNC117 (antibody)
[1]
  IC50, titer in TZM.bl cells: 0.05 µg/mL
  IC80, titer in TZM.bl cells: 0.22 µg/mL
[2]
  IC50, titer in TZM.bl cells: 1.38 µg/mL
  IC80, titer in TZM.bl cells: > 30 µg/mL
[3]
  neutralization IC50: 0.33 µg/mL
  neutralization IC80: 1.17 µg/mL
[4]
  neutralization IC50: 0.55 µg/mL
  neutralization IC80: 2.44 µg/mL
[5]
  IC50, titer in TZM.bl cells: > 50 µg/mL
  IC80, titer in TZM.bl cells: > 50 µg/mL
[6]
  neutralization IC50: 0.29 µg/mL
  neutralization IC80: 1.44 µg/mL
[7]
  IC50, titer in TZM.bl cells: > 50 µg/mL
  IC80, titer in TZM.bl cells: > 50 µg/mL
[8]
  IC50, titer in TZM.bl cells: 0.02 µg/mL
  IC80, titer in TZM.bl cells: 0.1 µg/mL
[9]
  neutralization IC50: 13.8 µg/mL
  neutralization IC80: > 50 µg/mL
[10]
  IC50, titer in TZM.bl cells: 0.01 µg/mL
  IC80, titer in TZM.bl cells: 0.05 µg/mL
[11]
  neutralization IC50: 0.42 µg/mL
  neutralization IC80: 1.51 µg/mL
[12]
  neutralization IC50: 17.2 µg/mL
  neutralization IC80: > 50 µg/mL
[13]
  neutralization IC50: 5.76 µg/mL
  neutralization IC80: 43 µg/mL
[14]
  neutralization IC50: 45.4 µg/mL
  neutralization IC80: > 50 µg/mL
[15]
  neutralization IC50: 0.02 µg/mL
  neutralization IC80: 0.06 µg/mL
[16]
  neutralization IC50: 0.2 µg/mL
  neutralization IC80: 0.67 µg/mL
[17]
  neutralization IC50: > 50 µg/mL
  neutralization IC80: > 50 µg/mL
[18]
  neutralization IC50: 0.22 µg/mL
  neutralization IC80: 0.75 µg/mL
[19]
  neutralization IC50: 0.24 µg/mL
  neutralization IC80: 0.81 µg/mL
[20]
  neutralization IC50: 0.37 µg/mL
  neutralization IC80: 1.67 µg/mL
[21]
  neutralization IC50: 0.003 µg/mL
  neutralization IC80: 0.02 µg/mL
[22]
  neutralization IC50: 27.5 µg/mL
  neutralization IC80: > 50 µg/mL
[23]
  neutralization IC50: 0.01 µg/mL
  neutralization IC80: 0.09 µg/mL
[24]
  IC50, titer in TZM.bl cells: 0.74 µg/mL
  IC80, titer in TZM.bl cells: 3.62 µg/mL
[25]
  neutralization IC50: 0.01 µg/mL
  neutralization IC80: 0.05 µg/mL
[26]
  neutralization IC50: 0.03 µg/mL
  neutralization IC80: 0.09 µg/mL
[27]
  IC50, titer in TZM.bl cells: 0.03 µg/mL
  IC80, titer in TZM.bl cells: 0.1 µg/mL
[28]
  neutralization IC50: 0.01 µg/mL
  neutralization IC80: 0.05 µg/mL
[29]
  neutralization IC50: < 0.09 µg/mL
  neutralization IC80: < 0.09 µg/mL
[30]
  IC50, titer in TZM.bl cells: 0.02 µg/mL
  IC80, titer in TZM.bl cells: 0.14 µg/mL
[31]
  neutralization IC50: < 0.09 µg/mL
  neutralization IC80: < 0.09 µg/mL
[32]
  neutralization IC50: 0.05 µg/mL
  neutralization IC80: 0.19 µg/mL
[33]
  neutralization IC50: 0.01 µg/mL
  neutralization IC80: 0.04 µg/mL
[34]
  IC50, titer in TZM.bl cells: 0.08 µg/mL
  IC80, titer in TZM.bl cells: 0.27 µg/mL
[35]
  IC50, titer in TZM.bl cells: 0.43 µg/mL
  IC80, titer in TZM.bl cells: 1.96 µg/mL
[36]
  neutralization IC50: > 50 µg/mL
  neutralization IC80: > 50 µg/mL
[37]
  neutralization IC50: 0.03 µg/mL
  neutralization IC80: 0.11 µg/mL

## 8ANC195 (antibody)
[1]
  IC50, titer in TZM.bl cells: 2.36 µg/mL
  IC80, titer in TZM.bl cells: 2.36 µg/mL
[2]
  IC50, titer in TZM.bl cells: 0.87 µg/mL
  IC80, titer in TZM.bl cells: > 50 µg/mL
[3]
  neutralization IC50: > 50 µg/mL
  neutralization IC80: > 50 µg/mL
[4]
  neutralization IC50: 0.2 µg/mL
  neutralization IC80: 0.91 µg/mL
[5]
  IC50, titer in TZM.bl cells: 26.9 µg/mL
  IC80, titer in TZM.bl cells: > 50 µg/mL
[6]
  neutralization IC50: 0.86 µg/mL
  neutralization IC80: 8.32 µg/mL
[7]
  IC50, titer in TZM.bl cells: > 50 µg/mL
  IC80, titer in TZM.bl cells: > 50 µg/mL
[8]
  IC50, titer in TZM.bl cells: 2.25 µg/mL
  IC80, titer in TZM.bl cells: 7.49 µg/mL
[9]
  neutralization IC50: 0.88 µg/mL
  neutralization IC80: 7 µg/mL
[10]
  IC50, titer in TZM.bl cells: 0.45 µg/mL
  IC80, titer in TZM.bl cells: 2.83 µg/mL
[11]
  neutralization IC50: > 50 µg/mL
  neutralization IC80: > 50 µg/mL
[12]
  neutralization IC50: > 50 µg/mL
  neutralization IC80: > 50 µg/mL
[13]
  neutralization IC50: 2.59 µg/mL
  neutralization IC80: 11.1 µg/mL
[14]
  neutralization IC50: 0.27 µg/mL
  neutralization IC80: 1.52 µg/mL
[15]
  neutralization IC50: 5.59 µg/mL
  neutralization IC80: 43.1 µg/mL
[16]
  neutralization IC50: 6.77 µg/mL
  neutralization IC80: > 50 µg/mL
[17]
  neutralization IC50: 42.3 µg/mL
  neutralization IC80: > 50 µg/mL
[18]
  neutralization IC50: 4.45 µg/mL
  neutralization IC80: 35.2 µg/mL
[19]
  neutralization IC50: 6.2 µg/mL
  neutralization IC80: > 50 µg/mL
[20]
  neutralization IC50: 13.6 µg/mL
  neutralization IC80: > 50 µg/mL
[21]
  neutralization IC50: > 50 µg/mL
  neutralization IC80: > 50 µg/mL
[22]
  neutralization IC50: 3.3 µg/mL
  neutralization IC80: 20.1 µg/mL
[23]
  neutralization IC50: > 50 µg/mL
  neutralization IC80: > 50 µg/mL
[24]
  IC50, titer in TZM.bl cells: 0.14 µg/mL
  IC80, titer in TZM.bl cells: 1.15 µg/mL
[25]
  neutralization IC50: > 50 µg/mL
  neutralization IC80: > 50 µg/mL
[26]
  neutralization IC50: 0.63 µg/mL
  neutralization IC80: 2.51 µg/mL
[27]
  IC50, titer in TZM.bl cells: 0.09 µg/mL
  IC80, titer in TZM.bl cells: 13 µg/mL
[28]
  neutralization IC50: 0.08 µg/mL
  neutralization IC80: 0.68 µg/mL
[29]
  neutralization IC50: 0.34 µg/mL
  neutralization IC80: 1.56 µg/mL
[30]
  IC50, titer in TZM.bl cells: 0.54 µg/mL
  IC80, titer in TZM.bl cells: 8.09 µg/mL
[31]
  neutralization IC50: 0.18 µg/mL
  neutralization IC80: 0.89 µg/mL
[32]
  neutralization IC50: > 50 µg/mL
  neutralization IC80: > 50 µg/mL
[33]
  neutralization IC50: > 50 µg/mL
  neutralization IC80: > 50 µg/mL
[34]
  IC50, titer in TZM.bl cells: 6.95 µg/mL
  IC80, titer in TZM.bl cells: 6.95 µg/mL
[35]
  IC50, titer in TZM.bl cells: 3.47 µg/mL
  IC80, titer in TZM.bl cells: > 50 µg/mL
[36]
  neutralization IC50: 3.41 µg/mL
  neutralization IC80: 25.1 µg/mL
[37]
  neutralization IC50: > 50 µg/mL
  neutralization IC80: > 50 µg/mL

## N49P18.1 (antibody)
[1]
  IC50: > 50 µg/mL
  IC80: > 50 µg/mL
  MPI: 31
[2]
  IC50: > 50 µg/mL
  IC80: > 50 µg/mL
  MPI: 49
[5]
  IC50: > 50 µg/mL
  IC80: > 50 µg/mL
  MPI: 0
[7]
  IC50: > 50 µg/mL
  IC80: > 50 µg/mL
  MPI: 9
[8]
  IC50: 41.3 µg/mL
  IC80: > 50 µg/mL
  MPI: 54
[10]
  IC50: 34 µg/mL
  IC80: > 50 µg/mL
  MPI: 64
[24]
  IC50: 19.3 µg/mL
  IC80: 45.4 µg/mL
  MPI: 83
[27]
  IC50: 3.38 µg/mL
  IC80: 11.8 µg/mL
  MPI: 100
[30]
  IC50: 10.4 µg/mL
  IC80: 33.8 µg/mL
  MPI: 90
[34]
  IC50: 24.8 µg/mL
  IC80: > 50 µg/mL
  MPI: 61
[35]
  IC50: 30.4 µg/mL
  IC80: > 50 µg/mL
  MPI: 75
